In PMC8122577, “Estrogen-Related Receptor Influences the Hemolymph Glucose Content by Regulating Midgut Trehalase Gene Expression in the Last Instar Larvae of Bombyx mori”:

T1: BmERR DBD (Bombyx mori, UniProt A0A1B1M0R7 103-178)
T1 sequence: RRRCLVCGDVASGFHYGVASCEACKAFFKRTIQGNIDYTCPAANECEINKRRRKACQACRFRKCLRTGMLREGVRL

B1: ERRE-like CRE 6 (dsDNA)
DNA 1: GCCTACAAGGGCAATAAAA
DNA 2: TTTTATTGCCCTTGTAGGC
B2: ERRE-like CRE 1 (dsDNA)
DNA 1: GGGTTCTGACCTCGGAGGG
DNA 2: CCCTCCGAGGTCAGAACCC
B3: ERRE-like CRE 2 (dsDNA)
DNA 1: CATTGGTGACCTACATGGC
DNA 2: GCCATGTAGGTCACCAATG
B4: ERRE-like CRE 4 (dsDNA)
DNA 1: CGATACAAGGTCAACGAGA
DNA 2: TCTCGTTGACCTTGTATCG

How the values were obtained:
BmERR DBD [1] = molecular target: T1, BmERR DBD; test: EMSA; inhibited by competitive probe; EMSA (Beyotime chemiluminescent kit), 25 °C 20 min; 5% native PAGE in 45 mM Tris-borate, 1 mM EDTA pH 8.3; binding buffer not given; conditions: protein: recombinant; label: 3'-end biotin; blunt
BmERR DBD [2] = molecular target: T1, BmERR DBD; test: EMSA; dose-dependent; reduced by anti-BmERR antibody or competitive probe; EMSA (Beyotime chemiluminescent kit), 25 °C 20 min; 5% native PAGE in 45 mM Tris-borate, 1 mM EDTA pH 8.3; binding buffer not given; conditions: protein: recombinant; label: 3'-end biotin; blunt

Row | Binder | binding result (BmERR DBD [1]) | binding result (BmERR DBD [2])
1 | B1 | binds | 
2 | B2 | binds | 
3 | B3 | binds | 
4 | B4 |  | binds
